Assay results reported in patent publication US20170073386A1.

Assays:
[1] = molecular target: murine GITR expressed on cells (mouse) (UniProt O35714); assay: cell-based or functional assay
[2] = molecular target: murine GITR expressed on cells (mouse) (UniProt O35714); assay: flow cytometry after treatment of mice with mGITRL-FP IgG2a; competitor DTA-1 as stain

Chain of murine GITR expressed on cells (mouse) (O35714 20-228): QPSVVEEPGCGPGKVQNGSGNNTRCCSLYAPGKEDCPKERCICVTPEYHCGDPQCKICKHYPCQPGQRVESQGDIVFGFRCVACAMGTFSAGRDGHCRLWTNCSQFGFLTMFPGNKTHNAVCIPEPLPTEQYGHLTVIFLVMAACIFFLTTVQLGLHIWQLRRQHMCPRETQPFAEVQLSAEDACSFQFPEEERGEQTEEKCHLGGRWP

EC50, GITR-dependent NFκB reporter gene cell assay (Jurkat mGITR) [1] [nM]	fold potency against DTA-1, GITR-dependent NFκB reporter gene cell assay [1] [fold]	reduction in GITR MFI (DTA-1 staining) on Tregs [2] [%]	Substance
2.31			DTA-1 anti-GITR antibody
0.05	50	> 75	mGITRL-FP mIgG2a (Fc fusion)
